Test system: MUTYH WT (MBP fusion) (Homo sapiens)
Assay: EMSA
Details: EMSA: DNA mix 40 mM Tris pH 7.6, 2 mM EDTA, 200 mM NaCl (printed '200 M'), 20% glycerol, 0.2 mg/ml BSA, 2 mM DTT, 20 pM duplex, mixed 1:1 with enzyme in 20 mM …

Substance | Kd (upper limit estimate, THF (abasic analog) opposite 8-oxoguanine) [pM] | Kd (table unit header missing, 2'-fluoro-2'-deoxyadenosine opposite 8-oxoguanine) [pM]
Duplex 2 THF:OG (product analog), 30 bp | < 10 | 
Duplex 2 fA:OG (substrate analog), 30 bp |  | 32
